Test results as given in article PMC3176292.

What was measured:
[1] = molecular target: T1, Flag-Smad4, full length, Q13485; test: co-IP; LUMIER: Renilla luciferase-Smad3 and Flag-tagged partner co-expressed with constitutively active Alk5 in HEK-293; Flag protein captured from cleared lysate (TNE: 10 mM Tris-HCl pH 7.8, 150 mM NaCl, 1 mM EDTA, 1% Igepal CA-630) on anti-Flag 96-well plates, 2 h at 4 °C; co-precipitated Renilla luciferase activity, TrxGA background subtracted, percent of wild-type Smad3; conditions: remark: other sources report otherwise
T1 chain: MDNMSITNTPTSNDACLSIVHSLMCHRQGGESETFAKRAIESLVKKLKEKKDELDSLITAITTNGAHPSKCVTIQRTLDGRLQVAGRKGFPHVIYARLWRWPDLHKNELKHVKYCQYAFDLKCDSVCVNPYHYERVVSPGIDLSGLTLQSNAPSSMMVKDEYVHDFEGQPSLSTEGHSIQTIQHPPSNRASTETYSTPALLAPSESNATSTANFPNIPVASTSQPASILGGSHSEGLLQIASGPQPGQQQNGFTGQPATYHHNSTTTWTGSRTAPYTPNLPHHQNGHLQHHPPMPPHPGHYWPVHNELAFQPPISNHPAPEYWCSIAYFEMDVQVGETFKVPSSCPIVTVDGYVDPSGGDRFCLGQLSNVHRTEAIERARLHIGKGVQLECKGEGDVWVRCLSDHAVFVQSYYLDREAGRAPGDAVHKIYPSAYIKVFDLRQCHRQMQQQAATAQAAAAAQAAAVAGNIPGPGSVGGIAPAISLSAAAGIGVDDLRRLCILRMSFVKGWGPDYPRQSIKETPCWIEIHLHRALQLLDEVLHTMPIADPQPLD

[2] = molecular target: T1, Flag-Smad4, full length, Q13485; test: co-IP; LUMIER as a1 but without co-expression of the activated Alk5 kinase (Smad3 not phosphorylated); percent of phosphorylated wild-type Smad3; conditions: remark: other sources report otherwise

Binder	percent binding relative to wild-type Smad3 [1] [%]	percent binding relative to wild-type Smad3 [2] [%]
Renilla luciferase-Smad3 wild type, co-expressed with constitutively active Alk5 (phosphorylated Smad3), P84022 1-425 (natural protein, here or on the partner: phosphorylated by the co-expressed activated Alk5 kinase (sites not given)) MSSILPFTPPIVKRLLGWKKGEQNGQEEKWCEKAVKSLVKKLKKTGQLDELEKAITTQNVNTKCITIPRSLDGRLQVSHRKGLPHVIYCRLWRWPDLHSHHELRAMELCEFAFNMKKDEVCVNPYHYQRVETPVLPPVLVPRHTEIPAEFPPLDDYSHSIPENTNFPAGIEPQSNIPETPPPGYLSEDGETSDHQMNHSMDAGSPNLSPNPMSPAHNNLDLQPVTYCEPAFWCSISYYELNQRVGETFHASQPSMTVDGFTDPSNSERFCLGLLSNVNRNAAVELTRRHIGRGVRLYYIGGEVFAECLSDSAIFVQSPNCNQRYGWHPATVCKIPPGCNLKIFNNQEFAALLAQSVNQGFEAVYQLTRMCTIRMSFVKGWGAEYRRQTVTSTPCWIELHLNGPLQWLDKVLTQMGSPSIRCSSVS	100	–
Renilla luciferase-Smad3 wild type, without Alk5 (not phosphorylated), P84022 1-425 (natural protein) MSSILPFTPPIVKRLLGWKKGEQNGQEEKWCEKAVKSLVKKLKKTGQLDELEKAITTQNVNTKCITIPRSLDGRLQVSHRKGLPHVIYCRLWRWPDLHSHHELRAMELCEFAFNMKKDEVCVNPYHYQRVETPVLPPVLVPRHTEIPAEFPPLDDYSHSIPENTNFPAGIEPQSNIPETPPPGYLSEDGETSDHQMNHSMDAGSPNLSPNPMSPAHNNLDLQPVTYCEPAFWCSISYYELNQRVGETFHASQPSMTVDGFTDPSNSERFCLGLLSNVNRNAAVELTRRHIGRGVRLYYIGGEVFAECLSDSAIFVQSPNCNQRYGWHPATVCKIPPGCNLKIFNNQEFAALLAQSVNQGFEAVYQLTRMCTIRMSFVKGWGAEYRRQTVTSTPCWIELHLNGPLQWLDKVLTQMGSPSIRCSSVS	–	6
